Consider two molecules from PMC12052392 (2025).

One test concerns the target S2 (G1124-H1159). Nature of the test: ELISA.
Another test concerns the target S2 (D1139-D1153). Nature of the test: ELISA. (In an ELISA, binding on a coated surface is turned into a signal by an enzyme label.)
For test [1], the target named is T1, SARS-CoV-2 S2 (T1076-Q1208) antigen, trimeric S2 fusion-core-based antigen (SARS-CoV-2, UniProt P0DTC2 1076-1208).
T1 chain: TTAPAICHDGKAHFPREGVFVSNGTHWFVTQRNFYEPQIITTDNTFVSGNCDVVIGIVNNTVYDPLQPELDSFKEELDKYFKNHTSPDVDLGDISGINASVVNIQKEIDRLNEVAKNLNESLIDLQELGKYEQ
Nature of the test: BLI.

Test [2] concerns the target T2, GST-fused truncated S2 protein S2 (D1139-E1151) (SARS-CoV-2, UniProt P0DTC2 1139-1151).
T2 chain: DPLQPELDSFKEE
Nature of the test: ELISA.

“And” between values parts separate entries of the source, which are not always exact repeats. Equal values may be shown once.

One may read the EC50 as the midpoint of the concentration-response curve. Read a high EC50 as lower potency in that assay. A word on the koff: it is the rate constant with which the complex falls apart. A higher koff goes with a short-lived complex.

B1: nanobody H145 (VHH)
VHH: QVQLVESGGGLVQTGGSLRLSCEASGSAFSSYAVNWYRQAPGKQREPVAAIGSFNTVYSDSVKGRFTISRDNAKNTVYLQMNSLKPEDTAVYICNARRGATNTWGQGTQVTVSS
modifications: biotin (Biotinylation Kit), only in the BLI with truncated S2 proteins
Consider B1, for which the EC50 with S2 (G1124-H1159) was 0.53 nM; with S2 (D1139-D1153), 1.01 nM; in test [2] it was > 170 nM. In addition, the off-rate (koff) in test [1] was 0.000149 s⁻¹ and 0.000129 s⁻¹ and 0.000123 s⁻¹.

B2: nanobody H17 (VHH)
VHH: EVQVVESGGGLVQTGGSLRLSCAASGSAFSSYAVNWYRQAPGKQREPVAAIGSFNTVYSDSVKGRFTISRDNAKNTVYLQMNSLKPEDTAVYVCNARRGATNYWGQGTQVTVSP
modifications: biotin (Biotinylation Kit), only in the BLI with truncated S2 proteins
In the case of B2, the 50% effective concentration (EC50) turned out to be 4.71 nM with S2 (G1124-H1159) and 4.83 nM with S2 (D1139-D1153). Moreover, the koff in test [1] is 0.000525 s⁻¹ and 0.00023 s⁻¹.
